Assay results: article PMC9881158, “The DEAD-box protein Dbp6 is an ATPase and RNA annealase interacting with the peptidyl transferase center (PTC) of the ribosome” (Nucleic Acids Research, 2023)
Residue numbers refer to the chain shown, from its start.

Columns and labels:
[1] = target: T1, Dbp6 M-I (Saccharomyces cerevisiae, UniProt P53734 1-629, K240A); assay: EMSA; 0.5 uM protein; stronger than WT; EMSA: 1 nM 32P-RNA, RB 1x (composition not in the material), RNasin, 15 min at 30 C, native PAGE in TBE; bridging: 0.8 uM Dbp6, RB 1x, 15 min at 30 C; settings: protein: recombinant; tags: N-terminal His6; chain copies: 2; label: 32P
T1 sequence: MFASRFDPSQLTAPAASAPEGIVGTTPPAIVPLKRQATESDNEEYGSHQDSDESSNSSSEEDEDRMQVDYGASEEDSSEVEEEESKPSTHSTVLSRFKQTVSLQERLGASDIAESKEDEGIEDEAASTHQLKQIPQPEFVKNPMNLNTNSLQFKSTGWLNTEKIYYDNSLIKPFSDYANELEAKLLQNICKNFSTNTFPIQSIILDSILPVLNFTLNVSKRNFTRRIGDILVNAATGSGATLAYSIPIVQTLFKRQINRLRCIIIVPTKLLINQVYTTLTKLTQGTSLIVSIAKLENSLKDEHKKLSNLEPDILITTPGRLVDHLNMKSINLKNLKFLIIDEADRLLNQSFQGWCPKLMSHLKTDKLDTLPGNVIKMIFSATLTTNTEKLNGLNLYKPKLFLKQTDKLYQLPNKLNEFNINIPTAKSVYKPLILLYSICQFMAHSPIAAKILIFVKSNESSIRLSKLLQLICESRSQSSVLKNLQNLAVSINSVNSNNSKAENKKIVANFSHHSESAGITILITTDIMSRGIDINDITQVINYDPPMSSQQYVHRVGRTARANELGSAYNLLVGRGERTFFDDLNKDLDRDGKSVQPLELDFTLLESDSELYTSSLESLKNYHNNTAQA

[2] = target: T2, Dbp6 M-II (Saccharomyces cerevisiae, UniProt P53734 1-629, E342A); assay: EMSA; 0.25 uM protein; stronger than WT; EMSA: 1 nM 32P-RNA, RB 1x (composition not in the material), RNasin, 15 min at 30 C, native PAGE in TBE; bridging: 0.8 uM Dbp6, RB 1x, 15 min at 30 C; settings: protein: recombinant, tags: N-terminal His6, chain copies: 2
T2 sequence: T1 sequence with A240K, E342A

[3] = target: T3, Dbp6 ΔN (Saccharomyces cerevisiae, UniProt P53734 1-629, del24-128); assay: EMSA; 0.5 uM protein; like WT; EMSA: 1 nM 32P-RNA, RB 1x (composition not in the material), RNasin, 15 min at 30 C, native PAGE in TBE; bridging: 0.8 uM Dbp6, RB 1x, 15 min at 30 C; settings: protein: recombinant; tags: N-terminal His6; chain copies: 2; label: 32P
T3 sequence: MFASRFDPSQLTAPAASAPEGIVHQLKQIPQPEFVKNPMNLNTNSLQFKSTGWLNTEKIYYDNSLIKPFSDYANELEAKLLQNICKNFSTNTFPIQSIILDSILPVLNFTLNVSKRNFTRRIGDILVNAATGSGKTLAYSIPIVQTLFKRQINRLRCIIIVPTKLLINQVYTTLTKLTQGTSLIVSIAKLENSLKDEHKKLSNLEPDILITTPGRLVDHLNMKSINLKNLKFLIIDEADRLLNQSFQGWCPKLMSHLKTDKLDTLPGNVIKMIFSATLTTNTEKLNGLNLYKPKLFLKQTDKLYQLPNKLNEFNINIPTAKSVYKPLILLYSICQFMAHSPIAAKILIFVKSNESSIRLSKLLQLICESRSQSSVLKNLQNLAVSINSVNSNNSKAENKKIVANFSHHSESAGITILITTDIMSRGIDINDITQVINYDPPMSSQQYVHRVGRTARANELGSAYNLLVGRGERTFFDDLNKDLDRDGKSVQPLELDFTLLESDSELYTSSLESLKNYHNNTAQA

[4] = target: T3, Dbp6 ΔN; assay: EMSA; 0.25 uM protein; like WT; EMSA: 1 nM 32P-RNA, RB 1x (composition not in the material), RNasin, 15 min at 30 C, native PAGE in TBE; bridging: 0.8 uM Dbp6, RB 1x, 15 min at 30 C; settings: protein: recombinant; tags: N-terminal His6; chain copies: 2; label: 32P on ss38-mer; 3' overhang 20 nt on strand 1; 38 bp region with one C-C mismatch
[5] = target: T1, Dbp6 M-I; assay: EMSA; 0.25 uM protein; not increased over WT; EMSA: 1 nM 32P-RNA, RB 1x (composition not in the material), RNasin, 15 min at 30 C, native PAGE in TBE; bridging: 0.8 uM Dbp6, RB 1x, 15 min at 30 C; settings: protein: recombinant; tags: N-terminal His6; chain copies: 2; label: 32P on ss38-mer; 3' overhang 20 nt on strand 1; 38 bp region with one C-C mismatch

Measured: binding result

CAGAACCGCUACACUGAAAUGAUCAAUUCCGGUCUCCC (ssRNA) [ss38-mer]
binds: [1] | [2]; label: 32P | [3]

B1: ds38/58 hemi-duplex (dsRNA)
RNA 1: GGGAGACCGGAAUUCAUCAUUUCAGUGUAGCGGUUCUGACGUGCAAAUCGAUCGUCGA
RNA 2: CAGAACCGCUACACUGAAAUGAUCAAUUCCGGUCUCCC
binds: [4] | [5] | [2]; label: 32P on ss38-mer, 3' overhang 20 nt on strand 1, 38 bp region with one C-C mismatch
